Laboratory results published in paper doi:10.1101/2021.03.03.433722.

Target: MvaT F36D/M44D (P. aeruginosa) (UniProt Q9HW86)
Assay: ITC

Substance | Kd [nM] | stoichiometry N
gp4 of Pseudomonas phage LUZ24 (natural protein) | 170 | 0.56
gp4 K42E/K45E (natural protein) | 1360 | 0.52
